From article PMC2927733
Where “and” joins values, the source holds several entries; their conditions need not be identical. Equal entries are not always repeated. Each block holds one substance with its values, some of them ahead of it.

Assays:
[1] = biological target: PccB D422A (Streptomyces coelicolor); experiment: crystal structure
[2] = biological target: PccB D422C (Streptomyces coelicolor); experiment: SEC
[3] = biological target: PccB D422C (Streptomyces coelicolor); experiment: crystal structure
[4] = biological target: PccB D422E (Streptomyces coelicolor); experiment: SEC
[5] = biological target: PccB D422F (Streptomyces coelicolor); experiment: SEC
[6] = biological target: PccB D422I (Streptomyces coelicolor); experiment: SEC
[7] = biological target: PccB D422L (Streptomyces coelicolor); experiment: SEC
[8] = biological target: PccB D422L (Streptomyces coelicolor); experiment: crystal structure
[9] = biological target: PccB D422N (Streptomyces coelicolor); experiment: SEC
[10] = biological target: PccB D422N (Streptomyces coelicolor); experiment: crystal structure
[11] = biological target: PccB D422Q (Streptomyces coelicolor); experiment: SEC
[12] = biological target: PccB D422V (Streptomyces coelicolor); experiment: SEC
[13] = biological target: PccB D422V (Streptomyces coelicolor); experiment: crystal structure
[14] = biological target: PccB D422Y (Streptomyces coelicolor); experiment: SEC
[15] = biological target: PccB N80A (Streptomyces coelicolor); experiment: SEC
[16] = biological target: PccB R456A (Streptomyces coelicolor); experiment: SEC
[17] = biological target: PccB R456A/R457A (Streptomyces coelicolor); experiment: SEC
[18] = biological target: wild type PccB, β subunit of propionyl-CoA carboxylase (PCC) of Streptomyces coelicolor (Streptomyces coelicolor); experiment: SEC

stoichiometry N [1]: 6
Substance: PccB D422A (enzyme)

stoichiometry N [2]: 6 | stoichiometry N [3]: 6
Substance: PccB D422C (enzyme)

stoichiometry N [4]: 6
Substance: PccB D422E (enzyme)

stoichiometry N [5]: 2 and 3
Substance: PccB D422F (enzyme)

stoichiometry N [6]: 6
Substance: PccB D422I (enzyme)

stoichiometry N [7]: 6 | stoichiometry N [8]: 6
Substance: PccB D422L (enzyme)

stoichiometry N [9]: 6 | stoichiometry N [10]: 6
Substance: PccB D422N (enzyme)

stoichiometry N [11]: 2 and 3
Substance: PccB D422Q (enzyme)

stoichiometry N [12]: 6 | stoichiometry N [13]: 6
Substance: PccB D422V (enzyme)

stoichiometry N [14]: 6
Substance: PccB D422Y (enzyme)

ratio of dimer to hexamer (dimer:hexamer) [15]: 2 | stoichiometry N [15]: 2 and 6
Substance: PccB N80A (enzyme)

ratio of dimer to hexamer (dimer:hexamer) [16]: 2.2 | stoichiometry N [16]: 2 and 6
Substance: PccB R456A (enzyme)

ratio of dimer to hexamer (dimer:hexamer) [17]: 2.9 | stoichiometry N [17]: 2 and 6
Substance: PccB R456A/R457A (enzyme)

stoichiometry N [18]: 6
Substance: wild type PccB, β subunit of propionyl-CoA carboxylase (PCC) of Streptomyces coelicolor (enzyme)
